This is an account of results in patent publication US20210388087A1 (Chugai, published 2021).

The labels stand for the following.
B1: GLS3000 Q90A (antibody, name in Kabat numbering, V domains shown)
VH: QVQLVESGGGVVQPGRSLRLSCAASGFTFSNAWMHWVRQAPGKGLEWVAQIKAKSNNYATYYAESVKGRFTISRDDSKNSLYLQMNSLKTEDTAVYYCRYVHYGAYYGVDAWGQGTTVTVSS
VL: DIVMTQSPLSLPVTPGEPASISCRSSQSLVHSNRNTYLHWYQQKPGQAPRLLIYKVSNRFSGVPDRFSGSGSGTDFTLKISRVEAEDVGVYYCGAGTQVPYTFGQGTKLEIK
notes: one-arm IgG as m2
B2: GLS3000 R24E (antibody, name in Kabat numbering, V domains shown)
VH: QVQLVESGGGVVQPGRSLRLSCAASGFTFSNAWMHWVRQAPGKGLEWVAQIKAKSNNYATYYAESVKGRFTISRDDSKNSLYLQMNSLKTEDTAVYYCRYVHYGAYYGVDAWGQGTTVTVSS
VL: DIVMTQSPLSLPVTPGEPASISCESSQSLVHSNRNTYLHWYQQKPGQAPRLLIYKVSNRFSGVPDRFSGSGSGTDFTLKISRVEAEDVGVYYCGQGTQVPYTFGQGTKLEIK
notes: one-arm IgG as m2
B3: GLS3000 Q93D (antibody, name in Kabat numbering, V domains shown)
VH: QVQLVESGGGVVQPGRSLRLSCAASGFTFSNAWMHWVRQAPGKGLEWVAQIKAKSNNYATYYAESVKGRFTISRDDSKNSLYLQMNSLKTEDTAVYYCRYVHYGAYYGVDAWGQGTTVTVSS
VL: DIVMTQSPLSLPVTPGEPASISCRSSQSLVHSNRNTYLHWYQQKPGQAPRLLIYKVSNRFSGVPDRFSGSGSGTDFTLKISRVEAEDVGVYYCGQGTDVPYTFGQGTKLEIK
notes: one-arm IgG as m2
B4: GLS3000 Q90E (antibody, name in Kabat numbering, V domains shown)
VH: QVQLVESGGGVVQPGRSLRLSCAASGFTFSNAWMHWVRQAPGKGLEWVAQIKAKSNNYATYYAESVKGRFTISRDDSKNSLYLQMNSLKTEDTAVYYCRYVHYGAYYGVDAWGQGTTVTVSS
VL: DIVMTQSPLSLPVTPGEPASISCRSSQSLVHSNRNTYLHWYQQKPGQAPRLLIYKVSNRFSGVPDRFSGSGSGTDFTLKISRVEAEDVGVYYCGEGTQVPYTFGQGTKLEIK
notes: one-arm IgG as m2
B5: GLS3000 Q90D (antibody, name in Kabat numbering, V domains shown)
VH: QVQLVESGGGVVQPGRSLRLSCAASGFTFSNAWMHWVRQAPGKGLEWVAQIKAKSNNYATYYAESVKGRFTISRDDSKNSLYLQMNSLKTEDTAVYYCRYVHYGAYYGVDAWGQGTTVTVSS
VL: DIVMTQSPLSLPVTPGEPASISCRSSQSLVHSNRNTYLHWYQQKPGQAPRLLIYKVSNRFSGVPDRFSGSGSGTDFTLKISRVEAEDVGVYYCGDGTQVPYTFGQGTKLEIK
notes: one-arm IgG as m2
B6: GLS3000 Q90P (antibody, name in Kabat numbering, V domains shown)
VH: QVQLVESGGGVVQPGRSLRLSCAASGFTFSNAWMHWVRQAPGKGLEWVAQIKAKSNNYATYYAESVKGRFTISRDDSKNSLYLQMNSLKTEDTAVYYCRYVHYGAYYGVDAWGQGTTVTVSS
VL: DIVMTQSPLSLPVTPGEPASISCRSSQSLVHSNRNTYLHWYQQKPGQAPRLLIYKVSNRFSGVPDRFSGSGSGTDFTLKISRVEAEDVGVYYCGPGTQVPYTFGQGTKLEIK
notes: one-arm IgG as m2
B7: GLS3000 R24G (antibody, name in Kabat numbering, V domains shown)
VH: QVQLVESGGGVVQPGRSLRLSCAASGFTFSNAWMHWVRQAPGKGLEWVAQIKAKSNNYATYYAESVKGRFTISRDDSKNSLYLQMNSLKTEDTAVYYCRYVHYGAYYGVDAWGQGTTVTVSS
VL: DIVMTQSPLSLPVTPGEPASISCGSSQSLVHSNRNTYLHWYQQKPGQAPRLLIYKVSNRFSGVPDRFSGSGSGTDFTLKISRVEAEDVGVYYCGQGTQVPYTFGQGTKLEIK
notes: one-arm IgG as m2
B8: GLS3000 Q90Y (antibody, name in Kabat numbering, V domains shown)
VH: QVQLVESGGGVVQPGRSLRLSCAASGFTFSNAWMHWVRQAPGKGLEWVAQIKAKSNNYATYYAESVKGRFTISRDDSKNSLYLQMNSLKTEDTAVYYCRYVHYGAYYGVDAWGQGTTVTVSS
VL: DIVMTQSPLSLPVTPGEPASISCRSSQSLVHSNRNTYLHWYQQKPGQAPRLLIYKVSNRFSGVPDRFSGSGSGTDFTLKISRVEAEDVGVYYCGYGTQVPYTFGQGTKLEIK
notes: one-arm IgG as m2
B9: GLS3000 Q93S (antibody, name in Kabat numbering, V domains shown)
VH: QVQLVESGGGVVQPGRSLRLSCAASGFTFSNAWMHWVRQAPGKGLEWVAQIKAKSNNYATYYAESVKGRFTISRDDSKNSLYLQMNSLKTEDTAVYYCRYVHYGAYYGVDAWGQGTTVTVSS
VL: DIVMTQSPLSLPVTPGEPASISCRSSQSLVHSNRNTYLHWYQQKPGQAPRLLIYKVSNRFSGVPDRFSGSGSGTDFTLKISRVEAEDVGVYYCGQGTSVPYTFGQGTKLEIK
notes: one-arm IgG as m2
B10: GLS3000 R24D (antibody, name in Kabat numbering, V domains shown)
VH: QVQLVESGGGVVQPGRSLRLSCAASGFTFSNAWMHWVRQAPGKGLEWVAQIKAKSNNYATYYAESVKGRFTISRDDSKNSLYLQMNSLKTEDTAVYYCRYVHYGAYYGVDAWGQGTTVTVSS
VL: DIVMTQSPLSLPVTPGEPASISCDSSQSLVHSNRNTYLHWYQQKPGQAPRLLIYKVSNRFSGVPDRFSGSGSGTDFTLKISRVEAEDVGVYYCGQGTQVPYTFGQGTKLEIK
notes: one-arm IgG as m2
B11: GLS3000 Q93R (antibody, name in Kabat numbering, V domains shown)
VH: QVQLVESGGGVVQPGRSLRLSCAASGFTFSNAWMHWVRQAPGKGLEWVAQIKAKSNNYATYYAESVKGRFTISRDDSKNSLYLQMNSLKTEDTAVYYCRYVHYGAYYGVDAWGQGTTVTVSS
VL: DIVMTQSPLSLPVTPGEPASISCRSSQSLVHSNRNTYLHWYQQKPGQAPRLLIYKVSNRFSGVPDRFSGSGSGTDFTLKISRVEAEDVGVYYCGQGTRVPYTFGQGTKLEIK
notes: one-arm IgG as m2
B12: GLS3000 Q90S (antibody, name in Kabat numbering, V domains shown)
VH: QVQLVESGGGVVQPGRSLRLSCAASGFTFSNAWMHWVRQAPGKGLEWVAQIKAKSNNYATYYAESVKGRFTISRDDSKNSLYLQMNSLKTEDTAVYYCRYVHYGAYYGVDAWGQGTTVTVSS
VL: DIVMTQSPLSLPVTPGEPASISCRSSQSLVHSNRNTYLHWYQQKPGQAPRLLIYKVSNRFSGVPDRFSGSGSGTDFTLKISRVEAEDVGVYYCGSGTQVPYTFGQGTKLEIK
notes: one-arm IgG as m2
B13: GLS3000 R24A (antibody, name in Kabat numbering, V domains shown)
VH: QVQLVESGGGVVQPGRSLRLSCAASGFTFSNAWMHWVRQAPGKGLEWVAQIKAKSNNYATYYAESVKGRFTISRDDSKNSLYLQMNSLKTEDTAVYYCRYVHYGAYYGVDAWGQGTTVTVSS
VL: DIVMTQSPLSLPVTPGEPASISCASSQSLVHSNRNTYLHWYQQKPGQAPRLLIYKVSNRFSGVPDRFSGSGSGTDFTLKISRVEAEDVGVYYCGQGTQVPYTFGQGTKLEIK
notes: one-arm IgG as m2
B14: GLS3000 R24S (antibody, name in Kabat numbering, V domains shown)
VH: QVQLVESGGGVVQPGRSLRLSCAASGFTFSNAWMHWVRQAPGKGLEWVAQIKAKSNNYATYYAESVKGRFTISRDDSKNSLYLQMNSLKTEDTAVYYCRYVHYGAYYGVDAWGQGTTVTVSS
VL: DIVMTQSPLSLPVTPGEPASISCSSSQSLVHSNRNTYLHWYQQKPGQAPRLLIYKVSNRFSGVPDRFSGSGSGTDFTLKISRVEAEDVGVYYCGQGTQVPYTFGQGTKLEIK
notes: one-arm IgG as m2
B15: GLS3000 Q93Y (antibody, name in Kabat numbering, V domains shown)
VH: QVQLVESGGGVVQPGRSLRLSCAASGFTFSNAWMHWVRQAPGKGLEWVAQIKAKSNNYATYYAESVKGRFTISRDDSKNSLYLQMNSLKTEDTAVYYCRYVHYGAYYGVDAWGQGTTVTVSS
VL: DIVMTQSPLSLPVTPGEPASISCRSSQSLVHSNRNTYLHWYQQKPGQAPRLLIYKVSNRFSGVPDRFSGSGSGTDFTLKISRVEAEDVGVYYCGQGTYVPYTFGQGTKLEIK
notes: one-arm IgG as m2
B16: GLS3000 Q93A (antibody, name in Kabat numbering, V domains shown)
VH: QVQLVESGGGVVQPGRSLRLSCAASGFTFSNAWMHWVRQAPGKGLEWVAQIKAKSNNYATYYAESVKGRFTISRDDSKNSLYLQMNSLKTEDTAVYYCRYVHYGAYYGVDAWGQGTTVTVSS
VL: DIVMTQSPLSLPVTPGEPASISCRSSQSLVHSNRNTYLHWYQQKPGQAPRLLIYKVSNRFSGVPDRFSGSGSGTDFTLKISRVEAEDVGVYYCGQGTAVPYTFGQGTKLEIK
notes: one-arm IgG as m2
B17: GLS3000 Q93P (antibody, name in Kabat numbering, V domains shown)
VH: QVQLVESGGGVVQPGRSLRLSCAASGFTFSNAWMHWVRQAPGKGLEWVAQIKAKSNNYATYYAESVKGRFTISRDDSKNSLYLQMNSLKTEDTAVYYCRYVHYGAYYGVDAWGQGTTVTVSS
VL: DIVMTQSPLSLPVTPGEPASISCRSSQSLVHSNRNTYLHWYQQKPGQAPRLLIYKVSNRFSGVPDRFSGSGSGTDFTLKISRVEAEDVGVYYCGQGTPVPYTFGQGTKLEIK
notes: one-arm IgG as m2
B18: GLS3000 R24Q (antibody, name in Kabat numbering, V domains shown)
VH: QVQLVESGGGVVQPGRSLRLSCAASGFTFSNAWMHWVRQAPGKGLEWVAQIKAKSNNYATYYAESVKGRFTISRDDSKNSLYLQMNSLKTEDTAVYYCRYVHYGAYYGVDAWGQGTTVTVSS
VL: DIVMTQSPLSLPVTPGEPASISCQSSQSLVHSNRNTYLHWYQQKPGQAPRLLIYKVSNRFSGVPDRFSGSGSGTDFTLKISRVEAEDVGVYYCGQGTQVPYTFGQGTKLEIK
notes: one-arm IgG as m2
B19: GLS3000 Q93E (antibody, name in Kabat numbering, V domains shown)
VH: QVQLVESGGGVVQPGRSLRLSCAASGFTFSNAWMHWVRQAPGKGLEWVAQIKAKSNNYATYYAESVKGRFTISRDDSKNSLYLQMNSLKTEDTAVYYCRYVHYGAYYGVDAWGQGTTVTVSS
VL: DIVMTQSPLSLPVTPGEPASISCRSSQSLVHSNRNTYLHWYQQKPGQAPRLLIYKVSNRFSGVPDRFSGSGSGTDFTLKISRVEAEDVGVYYCGQGTEVPYTFGQGTKLEIK
notes: one-arm IgG as m2
B20: GLS3000 R24P (antibody, name in Kabat numbering, V domains shown)
VH: QVQLVESGGGVVQPGRSLRLSCAASGFTFSNAWMHWVRQAPGKGLEWVAQIKAKSNNYATYYAESVKGRFTISRDDSKNSLYLQMNSLKTEDTAVYYCRYVHYGAYYGVDAWGQGTTVTVSS
VL: DIVMTQSPLSLPVTPGEPASISCPSSQSLVHSNRNTYLHWYQQKPGQAPRLLIYKVSNRFSGVPDRFSGSGSGTDFTLKISRVEAEDVGVYYCGQGTQVPYTFGQGTKLEIK
notes: one-arm IgG as m2

This experiment deals with T1, CD3 epsilon homodimer protein (UniProt P07766 23-126).
T1 construct: also called CD3 (CD3 epsilon)
T1 sequence (P07766 23-126): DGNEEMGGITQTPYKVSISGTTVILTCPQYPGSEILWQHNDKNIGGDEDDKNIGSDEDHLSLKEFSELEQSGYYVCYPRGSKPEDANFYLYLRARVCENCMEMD
Put plainly: SPR Biacore T200, CD3e homodimer on chip, vs unaltered GLS3000 antibody.
Protocol: An appropriate amount of CD3 epsilon homodimer protein was immobilized onto Sensor chip CM4 (GE Healthcare Japan Corp.) by the amine coupling method. Then, the antibody having an appropriate concentration was injected thereto as an analyte and allowed to interact with the CD3 epsilon homodimer protein on the sensor chip. Then, the sensor chip was regenerated by the injection of 10 mmol/L glycine-HCl (pH 1.5). The assay was conducted at 25 degrees C., and HBS-EP+(GE Healthcare Japan Corp.) was used as a running buffer. […] Each parameter was calculated using Biacore T200 Evaluation Software (GE Healthcare Japan Corp.).
In the case of B1, the “ratio of amounts bound (Z=Y/X)” value was 0.5.

For B2, the “ratio of amounts bound (Z=Y/X)” value turned out to be 0.83.

With B3, the “ratio of amounts bound (Z=Y/X)” value was 0.72.

For the molecule B4, the “ratio of amounts bound (Z=Y/X)” value came to 0.86.

Take B5: the “ratio of amounts bound (Z=Y/X)” value turned out to be 0.19.

Regarding B6, the “ratio of amounts bound (Z=Y/X)” value is 0.27.

With B7, the “ratio of amounts bound (Z=Y/X)” value came out at 0.89.

Consider B8, for which the “ratio of amounts bound (Z=Y/X)” value is 0.17.

Regarding B9, the “ratio of amounts bound (Z=Y/X)” value was determined as 0.96.

Regarding B10, the “ratio of amounts bound (Z=Y/X)” value came out at 0.75.

For the molecule B11, the “ratio of amounts bound (Z=Y/X)” value was 1.13.

Consider B12, for which the “ratio of amounts bound (Z=Y/X)” value stood at 0.73.

In the case of B13, the “ratio of amounts bound (Z=Y/X)” value was found to be 0.86.

B14: the “ratio of amounts bound (Z=Y/X)” value is 0.89.

On to B15, for which the “ratio of amounts bound (Z=Y/X)” value came out at 0.87.

Consider B16, for which the “ratio of amounts bound (Z=Y/X)” value was 0.85.

Regarding B17, the “ratio of amounts bound (Z=Y/X)” value came to 0.25.

As for B18, the “ratio of amounts bound (Z=Y/X)” value amounted to 0.9.

Turning to B19, the “ratio of amounts bound (Z=Y/X)” value was determined as 0.75.

As for B20, the “ratio of amounts bound (Z=Y/X)” value is 0.7.
